Article PMC8187647, “Low chorionic villous succinate accumulation associates with recurrent spontaneous abortion risk” (Nature Communications, 2021)

Experiments:
SDHA = biological target: T1, SDHA (Homo sapiens, UniProt P31040); experiment: DARTS (Pronase proteolysis, western blot); assay type: binding; conditions: 1 mM aspirin, 1 h; Pronase 1:2000, room temperature, 30 min
T1 construct: recombinant Flag-tagged SDHA, transient expression in HEK293T, anti-Flag M2 purified

SDHC = biological target: T2, SDHC (Homo sapiens, UniProt Q99643); experiment: DARTS (Pronase proteolysis, western blot); assay type: binding; conditions: 1 mM aspirin, 1 h; Pronase 1:2000, room temperature, 30 min
T2 construct: recombinant Flag-tagged SDHC, transient expression in HEK293T, anti-Flag M2 purified
T2 sequence (Q99643 30-169): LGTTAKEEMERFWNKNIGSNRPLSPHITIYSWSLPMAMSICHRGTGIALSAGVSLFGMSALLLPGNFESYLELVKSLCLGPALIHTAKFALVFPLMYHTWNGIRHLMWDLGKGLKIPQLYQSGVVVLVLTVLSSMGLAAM

MBD1 = biological target: T3, MBD1 (UniProt Q9UIS9 1-605); experiment: EMSA; EMSA Kit (Invitrogen), buffer, salt and pH not stated; 15 °C, 30 min; 6% native polyacrylamide gel; conditions: protein: recombinant; tags: His6 (pET22b)
T3 sequence: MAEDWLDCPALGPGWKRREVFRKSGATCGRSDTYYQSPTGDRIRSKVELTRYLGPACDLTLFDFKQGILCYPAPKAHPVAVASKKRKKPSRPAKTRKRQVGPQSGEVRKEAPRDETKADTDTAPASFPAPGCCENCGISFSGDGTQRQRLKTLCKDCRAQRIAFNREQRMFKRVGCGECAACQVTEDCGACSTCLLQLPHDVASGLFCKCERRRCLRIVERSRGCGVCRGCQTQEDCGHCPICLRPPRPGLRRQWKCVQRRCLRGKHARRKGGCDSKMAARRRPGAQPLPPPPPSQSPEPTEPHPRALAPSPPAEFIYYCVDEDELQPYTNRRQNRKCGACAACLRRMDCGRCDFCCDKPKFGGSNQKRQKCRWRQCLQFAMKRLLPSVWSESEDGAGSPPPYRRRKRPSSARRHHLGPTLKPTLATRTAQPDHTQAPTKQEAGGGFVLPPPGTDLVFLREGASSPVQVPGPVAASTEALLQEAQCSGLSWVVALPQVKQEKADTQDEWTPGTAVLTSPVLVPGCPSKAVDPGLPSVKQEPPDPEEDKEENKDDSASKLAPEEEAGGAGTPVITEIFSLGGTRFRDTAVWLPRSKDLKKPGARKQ

c-Fos = c-Fos (UniProt P01100 1-380); experiment: as above; conditions: protein: recombinant; tags: His6 (pET22b); chain copies: 2
Sequence of c-Fos (P01100 whole entry): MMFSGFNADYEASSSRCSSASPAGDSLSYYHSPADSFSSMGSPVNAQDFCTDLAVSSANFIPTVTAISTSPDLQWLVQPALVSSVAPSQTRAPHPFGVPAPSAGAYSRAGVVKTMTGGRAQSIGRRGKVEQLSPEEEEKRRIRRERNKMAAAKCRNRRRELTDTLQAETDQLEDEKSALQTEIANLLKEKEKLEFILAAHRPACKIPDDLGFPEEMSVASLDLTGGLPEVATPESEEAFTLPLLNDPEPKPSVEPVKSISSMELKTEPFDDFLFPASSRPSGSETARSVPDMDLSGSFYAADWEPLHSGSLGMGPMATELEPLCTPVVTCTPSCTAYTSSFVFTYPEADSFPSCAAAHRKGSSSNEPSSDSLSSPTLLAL

T1 sequence (P31040 43-664): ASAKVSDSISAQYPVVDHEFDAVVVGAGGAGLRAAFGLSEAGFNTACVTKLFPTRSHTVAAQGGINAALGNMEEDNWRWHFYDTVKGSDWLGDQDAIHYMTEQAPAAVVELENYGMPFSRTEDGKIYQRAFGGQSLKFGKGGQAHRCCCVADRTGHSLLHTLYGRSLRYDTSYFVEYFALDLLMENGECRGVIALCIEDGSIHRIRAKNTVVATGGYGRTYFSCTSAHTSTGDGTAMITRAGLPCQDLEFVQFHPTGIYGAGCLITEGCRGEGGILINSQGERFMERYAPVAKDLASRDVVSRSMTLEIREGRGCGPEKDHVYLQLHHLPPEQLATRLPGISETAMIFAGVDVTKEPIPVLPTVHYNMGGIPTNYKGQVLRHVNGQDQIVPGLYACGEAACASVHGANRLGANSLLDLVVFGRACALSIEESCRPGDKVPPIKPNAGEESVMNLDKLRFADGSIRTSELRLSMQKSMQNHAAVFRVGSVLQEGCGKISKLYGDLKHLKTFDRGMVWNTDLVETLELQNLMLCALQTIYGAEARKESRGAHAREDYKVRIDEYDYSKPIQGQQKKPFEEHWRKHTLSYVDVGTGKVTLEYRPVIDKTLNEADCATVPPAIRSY

CC(=O)Oc1ccccc1C(=O)O [aspirin]
DARTS (Pronase proteolysis, western blot) (SDHA): aspirin can specifically bind to SDHA and SDHC, but not SDHB and SDHD
DARTS (Pronase proteolysis, western blot) (SDHC): aspirin can specifically bind to SDHA and SDHC, but not SDHB and SDHD

B1: SDHB promoter -1172/-1165 CpG, methylated (dsDNA)
DNA 1: GGCAAGCTGCACGGTATGCGACAGAAAGGG
DNA 2: CCCTTTCTGTCGCATACCGTGCAGCTTGCC
modifications: 5mC at C12 and C19 of strand 1; methylation of the complement not stated
binding result (MBD1): binds

B2: SDHB promoter -1135 CpG, methylated (dsDNA)
DNA 1: ACTCAAGCCAGTAAGCGTCAGAGATGAATA
DNA 2: TATTCATCTCTGACGCTTACTGGCTTGAGT
modifications: 5mC at C16 of strand 1; methylation of the complement not stated
binding result (MBD1): binds

B3: SDHB promoter c-Fos binding region (dsDNA)
DNA 1: ACAGAAAGGGCTGACTCAAGCCAGTAAGCG
DNA 2: CGCTTACTGGCTTGAGTCAGCCCTTTCTGT
binding result (c-Fos): binds
